This is an account of results in patent US20150322128A1 (Sanofi, published 2015).

Common to all, as to assay: cell-based or functional assay
Experiment [1] has as its target T1, human GLP-1 receptor (human, UniProt P43220 24-463).
The target of experiment [2] is T2, human GIP receptor (human, UniProt P48546 22-466).
T2 sequence (looked up): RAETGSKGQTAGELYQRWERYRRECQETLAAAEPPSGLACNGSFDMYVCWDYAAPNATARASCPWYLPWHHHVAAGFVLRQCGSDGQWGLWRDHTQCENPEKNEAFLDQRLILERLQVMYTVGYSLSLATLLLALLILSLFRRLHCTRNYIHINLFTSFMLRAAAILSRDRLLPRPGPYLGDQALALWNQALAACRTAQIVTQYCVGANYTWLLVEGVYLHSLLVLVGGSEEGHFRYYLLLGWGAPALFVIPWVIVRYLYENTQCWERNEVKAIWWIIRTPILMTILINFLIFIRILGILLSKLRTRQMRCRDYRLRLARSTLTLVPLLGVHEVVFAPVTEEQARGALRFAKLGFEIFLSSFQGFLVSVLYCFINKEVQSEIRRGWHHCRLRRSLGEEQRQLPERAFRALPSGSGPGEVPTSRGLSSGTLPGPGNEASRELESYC

The target of experiment [3] is T3, human glucagon receptor (human, UniProt P47871 26-477).
The target in experiment [4] is T1, human GLP-1 receptor. This is another data set of the same source.
Experiment [5] deals with T2, human GIP receptor. The source holds these as a separate data set.
Experiment [6] concerns the target T3, human glucagon receptor. This is another data set of the same source.
Experiment [7] has as its target T1, human GLP-1 receptor. The source holds these as a separate data set.
The target in experiment [8] is T2, human GIP receptor. This is another data set of the same source.
The target of experiment [9] is T3, human glucagon receptor. The source holds these as a separate data set.

Like-named read-outs stand apart in the source and are kept apart here. Numbered stars: 1 amine (or outer) side, 2 acyl side, 3 side chain; on linkers, the order of the positions; unused ones are H or OH. Square brackets hold non-standard residues; d marks the D form. Side chains are listed from the residue outwards. Ends that are not written are not given here. * marks the point of attachment. γGlu = O=C(O)[C@H](CCC(=O)[*:2])N[*:1]; Palmitoyl = CCCCCCCCCCCCCCCC(=O)*; Aib = CC(C)(N)C(=O)O

T3 sequence (P47871 26-477): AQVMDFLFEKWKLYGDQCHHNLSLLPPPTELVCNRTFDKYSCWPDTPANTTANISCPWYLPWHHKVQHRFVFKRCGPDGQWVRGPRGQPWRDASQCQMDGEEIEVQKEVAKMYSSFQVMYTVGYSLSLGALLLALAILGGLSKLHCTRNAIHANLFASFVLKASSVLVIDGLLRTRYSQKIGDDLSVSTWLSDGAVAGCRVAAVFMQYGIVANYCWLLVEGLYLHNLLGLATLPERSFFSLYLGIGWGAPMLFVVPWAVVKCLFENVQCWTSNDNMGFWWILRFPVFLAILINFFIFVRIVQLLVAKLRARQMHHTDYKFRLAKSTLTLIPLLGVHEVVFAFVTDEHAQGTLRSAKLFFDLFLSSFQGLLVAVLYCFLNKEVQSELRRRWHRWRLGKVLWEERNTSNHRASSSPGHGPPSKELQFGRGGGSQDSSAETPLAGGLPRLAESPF

B1: SEQ ID NO: 31 (peptide)
peptide: H[dS]QGTFTSDLSKQK([γGlu-γGlu-Palmitoyl])EEEAARLFIEWLKAGGPSSGAPPPS-NH2
modifications: N-terminus assumed
SMILES: CCCCCCCCCCCCCCCC(=O)N[C@@H](CCC(=O)N[C@@H](CCC(=O)NCCCC[C@H](NC(=O)[C@H](CCC(N)=O)NC(=O)[C@H](CCCCN)NC(=O)[C@H](CO)NC(=O)[C@H](CC(C)C)NC(=O)[C@H](CC(=O)O)NC(=O)[C@H](CO)NC(=O)[C@@H](NC(=O)[C@H](Cc1ccccc1)NC(=O)[C@@H](NC(=O)CNC(=O)[C@H](CCC(N)=O)NC(=O)[C@@H](CO)NC(=O)[C@@H](N)Cc1c[nH]cn1)[C@@H](C)O)[C@@H](C)O)C(=O)N[C@@H](CCC(=O)O)C(=O)N[C@@H](CCC(=O)O)C(=O)N[C@@H](CCC(=O)O)C(=O)N[C@@H](C)C(=O)N[C@@H](C)C(=O)N[C@@H](CCCNC(=N)N)C(=O)N[C@@H](CC(C)C)C(=O)N[C@@H](Cc1ccccc1)C(=O)N[C@H](C(=O)N[C@@H](CCC(=O)O)C(=O)N[C@@H](Cc1c[nH]c2ccccc12)C(=O)N[C@@H](CC(C)C)C(=O)N[C@@H](CCCCN)C(=O)N[C@@H](C)C(=O)NCC(=O)NCC(=O)N1CCC[C@H]1C(=O)N[C@@H](CO)C(=O)N[C@@H](CO)C(=O)NCC(=O)N[C@@H](C)C(=O)N1CCC[C@H]1C(=O)N1CCC[C@H]1C(=O)N1CCC[C@H]1C(=O)N[C@@H](CO)C(N)=O)[C@@H](C)CC)C(=O)O)C(=O)O
B1: the “EC50 hGLP-1R” value in the experiment with human GLP-1 receptor [1] turned out to be 1.3 pM. In the experiment with human GIP receptor [2], the “EC50 hGIP-1” value was found to be 345 pM. The “EC50 hGlucagon-R” value in the experiment with human glucagon receptor [3] was 7.4 pM.

B2: SEQ ID NO: 16 (peptide)
peptide: H[dS]QGTFTSDLSKQK([γGlu-γGlu-Palmitoyl])EEEAARLFIEWL[Aib]AGGPSSGAPPPS-NH2
modifications: N-terminus assumed
SMILES: CCCCCCCCCCCCCCCC(=O)N[C@@H](CCC(=O)N[C@@H](CCC(=O)NCCCC[C@H](NC(=O)[C@H](CCC(N)=O)NC(=O)[C@H](CCCCN)NC(=O)[C@H](CO)NC(=O)[C@H](CC(C)C)NC(=O)[C@H](CC(=O)O)NC(=O)[C@H](CO)NC(=O)[C@@H](NC(=O)[C@H](Cc1ccccc1)NC(=O)[C@@H](NC(=O)CNC(=O)[C@H](CCC(N)=O)NC(=O)[C@@H](CO)NC(=O)[C@@H](N)Cc1c[nH]cn1)[C@@H](C)O)[C@@H](C)O)C(=O)N[C@@H](CCC(=O)O)C(=O)N[C@@H](CCC(=O)O)C(=O)N[C@@H](CCC(=O)O)C(=O)N[C@@H](C)C(=O)N[C@@H](C)C(=O)N[C@@H](CCCNC(=N)N)C(=O)N[C@@H](CC(C)C)C(=O)N[C@@H](Cc1ccccc1)C(=O)N[C@H](C(=O)N[C@@H](CCC(=O)O)C(=O)N[C@@H](Cc1c[nH]c2ccccc12)C(=O)N[C@@H](CC(C)C)C(=O)NC(C)(C)C(=O)N[C@@H](C)C(=O)NCC(=O)NCC(=O)N1CCC[C@H]1C(=O)N[C@@H](CO)C(=O)N[C@@H](CO)C(=O)NCC(=O)N[C@@H](C)C(=O)N1CCC[C@H]1C(=O)N1CCC[C@H]1C(=O)N1CCC[C@H]1C(=O)N[C@@H](CO)C(N)=O)[C@@H](C)CC)C(=O)O)C(=O)O
Consider B2, for which the “EC50 hGLP-1R” value in the experiment with human GLP-1 receptor [4] and with human GLP-1 receptor [1] was 1.8 pM throughout. Moreover, the “EC50 hGIP-R” value in the experiment with human GIP receptor [5] came out at 7780 pM. Further, the “EC50 hGlucagon-R” value in the experiment with human glucagon receptor [6] and in the experiment with human glucagon receptor [3] was 35.4 pM each time. In addition, in the experiment with human GIP receptor [2], the “EC50 hGIP-1” value is 7780 pM.

B3: SEQ ID NO: 11 (peptide)
peptide: HSQGTFTSDLSKQK([γGlu-γGlu-Palmitoyl])DEEAARLFIEWL[Aib]AGGPSSGAPPPS-NH2
modifications: N-terminus assumed
SMILES: CCCCCCCCCCCCCCCC(=O)N[C@@H](CCC(=O)N[C@@H](CCC(=O)NCCCC[C@H](NC(=O)[C@H](CCC(N)=O)NC(=O)[C@H](CCCCN)NC(=O)[C@H](CO)NC(=O)[C@H](CC(C)C)NC(=O)[C@H](CC(=O)O)NC(=O)[C@H](CO)NC(=O)[C@@H](NC(=O)[C@H](Cc1ccccc1)NC(=O)[C@@H](NC(=O)CNC(=O)[C@H](CCC(N)=O)NC(=O)[C@H](CO)NC(=O)[C@@H](N)Cc1c[nH]cn1)[C@@H](C)O)[C@@H](C)O)C(=O)N[C@@H](CC(=O)O)C(=O)N[C@@H](CCC(=O)O)C(=O)N[C@@H](CCC(=O)O)C(=O)N[C@@H](C)C(=O)N[C@@H](C)C(=O)N[C@@H](CCCNC(=N)N)C(=O)N[C@@H](CC(C)C)C(=O)N[C@@H](Cc1ccccc1)C(=O)N[C@H](C(=O)N[C@@H](CCC(=O)O)C(=O)N[C@@H](Cc1c[nH]c2ccccc12)C(=O)N[C@@H](CC(C)C)C(=O)NC(C)(C)C(=O)N[C@@H](C)C(=O)NCC(=O)NCC(=O)N1CCC[C@H]1C(=O)N[C@@H](CO)C(=O)N[C@@H](CO)C(=O)NCC(=O)N[C@@H](C)C(=O)N1CCC[C@H]1C(=O)N1CCC[C@H]1C(=O)N1CCC[C@H]1C(=O)N[C@@H](CO)C(N)=O)[C@@H](C)CC)C(=O)O)C(=O)O
With B3, the “EC50 hGLP-1R” value in the experiment with human GLP-1 receptor [4] and with human GLP-1 receptor [1] was 1.2 pM throughout. Moreover, the “EC50 hGIP-R” value with human GIP receptor [5] worked out at 560 pM. Further, the “EC50 hGlucagon-R” value with human glucagon receptor [6] and with human glucagon receptor [3] was 5.1 pM throughout. In addition, in the experiment with human GIP receptor [2], the “EC50 hGIP-1” value is 560 pM.

Consider H[dS]HGTFTSDLSKQK([γGlu-γGlu-Palmitoyl])DEEAARLFIEWL[Aib]AGGPSSGAPPPS-NH2 [SEQ ID NO: 7], for which the “EC50 hGLP-1R” value with human GLP-1 receptor [4] and with human GLP-1 receptor [1] was 1.5 pM throughout. The “EC50 hGIP-R” value in the experiment with human GIP receptor [5] stood at 908 pM. Besides, the “EC50 hGlucagon-R” value in the experiment with human glucagon receptor [6] and with human glucagon receptor [3] was 9 pM each time. For the same molecule, the “EC50 hGIP-1” value in the experiment with human GIP receptor [2] was 908 pM.

B4: SEQ ID NO: 28 (peptide)
peptide: H[dS]QGTFTSDLSKQLDEEAARLFIEWL[Aib]AGGPSSGAPPPS-NH2
modifications: N-terminus assumed
SMILES: CC[C@H](C)[C@H](NC(=O)[C@H](Cc1ccccc1)NC(=O)[C@H](CC(C)C)NC(=O)[C@H](CCCNC(=N)N)NC(=O)[C@H](C)NC(=O)[C@H](C)NC(=O)[C@H](CCC(=O)O)NC(=O)[C@H](CCC(=O)O)NC(=O)[C@H](CC(=O)O)NC(=O)[C@H](CC(C)C)NC(=O)[C@H](CCC(N)=O)NC(=O)[C@H](CCCCN)NC(=O)[C@H](CO)NC(=O)[C@H](CC(C)C)NC(=O)[C@H](CC(=O)O)NC(=O)[C@H](CO)NC(=O)[C@@H](NC(=O)[C@H](Cc1ccccc1)NC(=O)[C@@H](NC(=O)CNC(=O)[C@H](CCC(N)=O)NC(=O)[C@@H](CO)NC(=O)[C@@H](N)Cc1c[nH]cn1)[C@@H](C)O)[C@@H](C)O)C(=O)N[C@@H](CCC(=O)O)C(=O)N[C@@H](Cc1c[nH]c2ccccc12)C(=O)N[C@@H](CC(C)C)C(=O)NC(C)(C)C(=O)N[C@@H](C)C(=O)NCC(=O)NCC(=O)N1CCC[C@H]1C(=O)N[C@@H](CO)C(=O)N[C@@H](CO)C(=O)NCC(=O)N[C@@H](C)C(=O)N1CCC[C@H]1C(=O)N1CCC[C@H]1C(=O)N1CCC[C@H]1C(=O)N[C@@H](CO)C(N)=O
In the case of B4, in the experiment with human GLP-1 receptor [7], the “EC50 hGLP-1R” value is 3.8 pM. In addition, the “EC50 hGIP-1” value with human GIP receptor [8] is 343000 pM. In the experiment with human glucagon receptor [9], the “EC50 hGlucagon-R” value is 1040 pM.

B5: SEQ ID NO: 29 (peptide)
peptide: HXHGTFTSDLSKQKDEEAARLFIEWLKAGGPSSGAPPPS
modifications: D-Ser at 2; Lys 14 side chain K(γE-γE-x53) = (S)-4-Carboxy-4-((S)-4-carboxy-4-hexadecanoylamino-butyrylamino)-butyryl-; C-terminal amide
B5: in the experiment with human GLP-1 receptor [1], the “EC50 hGLP-1R” value was 0.9 pM. The “EC50 hGIP-1” value with human GIP receptor [2] is 112 pM. In addition, the “EC50 hGlucagon-R” value in the experiment with human glucagon receptor [3] was determined as 2.6 pM.

B6: SEQ ID NO: 30 (peptide)
peptide: HXHGTFTSDLSKQKEEEAARLFIEWLKAGGPSSGAPPPS
modifications: D-Ser at 2; Lys 14 side chain K(γE-γE-x53) = (S)-4-Carboxy-4-((S)-4-carboxy-4-hexadecanoylamino-butyrylamino)-butyryl-; C-terminal amide
For the molecule B6, the “EC50 hGLP-1R” value with human GLP-1 receptor [1] was determined as 0.8 pM. The “EC50 hGIP-1” value with human GIP receptor [2] came out at 77.8 pM. The “EC50 hGlucagon-R” value with human glucagon receptor [3] was found to be 5.1 pM.

B7: SEQ ID NO: 6 (peptide)
peptide: H[dS]HGTFTSDLSKQK([γGlu-γGlu-Palmitoyl])EEEAARLFIEWL[Aib]AGGPSSGAPPPS-NH2
modifications: N-terminus assumed
SMILES: CCCCCCCCCCCCCCCC(=O)N[C@@H](CCC(=O)N[C@@H](CCC(=O)NCCCC[C@H](NC(=O)[C@H](CCC(N)=O)NC(=O)[C@H](CCCCN)NC(=O)[C@H](CO)NC(=O)[C@H](CC(C)C)NC(=O)[C@H](CC(=O)O)NC(=O)[C@H](CO)NC(=O)[C@@H](NC(=O)[C@H](Cc1ccccc1)NC(=O)[C@@H](NC(=O)CNC(=O)[C@H](Cc1c[nH]cn1)NC(=O)[C@@H](CO)NC(=O)[C@@H](N)Cc1c[nH]cn1)[C@@H](C)O)[C@@H](C)O)C(=O)N[C@@H](CCC(=O)O)C(=O)N[C@@H](CCC(=O)O)C(=O)N[C@@H](CCC(=O)O)C(=O)N[C@@H](C)C(=O)N[C@@H](C)C(=O)N[C@@H](CCCNC(=N)N)C(=O)N[C@@H](CC(C)C)C(=O)N[C@@H](Cc1ccccc1)C(=O)N[C@H](C(=O)N[C@@H](CCC(=O)O)C(=O)N[C@@H](Cc1c[nH]c2ccccc12)C(=O)N[C@@H](CC(C)C)C(=O)NC(C)(C)C(=O)N[C@@H](C)C(=O)NCC(=O)NCC(=O)N1CCC[C@H]1C(=O)N[C@@H](CO)C(=O)N[C@@H](CO)C(=O)NCC(=O)N[C@@H](C)C(=O)N1CCC[C@H]1C(=O)N1CCC[C@H]1C(=O)N1CCC[C@H]1C(=O)N[C@@H](CO)C(N)=O)[C@@H](C)CC)C(=O)O)C(=O)O
Regarding B7, the “EC50 hGLP-1R” value in the experiment with human GLP-1 receptor [4] and in the experiment with human GLP-1 receptor [1] was 2.6 pM in each case. Moreover, the “EC50 hGIP-R” value with human GIP receptor [5] was determined as 1540 pM. Besides, the “EC50 hGlucagon-R” value with human glucagon receptor [6] and with human glucagon receptor [3] was 17.7 pM in each case. The “EC50 hGIP-1” value with human GIP receptor [2] was determined as 1540 pM.
